Measured values as given in US20210198328A1, “MODULATED CAS-INHIBITORS” (Universität Heidelberg, priority 2017, published 2021).

Key:
dCas9-VP64 = target: T1, dCas9-VP64 (Streptococcus pyogenes serotype M1, UniProt Q99ZW2, D10A/N863A); assay: dCas9-VP64 luciferase reporter trans-activation assay; format: cell-based; details: HEK 293T
T1 construct: host or cells: HEK 293T
Method: HEK 293T cells were seeded into black, clear-bottom 96-well plates (Corning) at a density of ˜12.500 cells per well Twenty-four hours after seeding, cells were transfected according to the manufacturer's instructions using Lipofectamine® 2000 and Opti-MEM® reduced serum medium (Thermo Fisher). […]
(§1) Six h post-transfection, medium was replaced and the cells were illuminated with 460 nm pulsatile blue light (light intensity 2-3 W/m^2 as measured with a LI-COR LI-250A Light Meter, pulsatile illumination regime is indicated in figure legends) or kept in the dark under otherwise identical conditions for 32-42 h (indicated in figure legends). […] Subsequently, the luciferase activity was measured using the Dual-Glo luciferase assay kit (Promega) according to the manufacturer's protocol. In brief, the cells were lysed using the provided lysis buffer and tire activity of firefly and Renilla luciferase was quantified using a GLOMAX 96 Microplate Luminometer (Promega) with automated injectors (delay time 2 s, integration time 10 s). The relative luciferase activity was calculated by dividing the firefly luciferase photon counts by the Renilla luciferase photon counts. […]

HEK 293T cells = assay: Light-induced nuclear export, mCherry fluorescence imaging; format: cell-based, human
Method: FIG. 5: Induced nuclear export inhibits AcrIIA4 function. (A) Schematic of AcrIIA4 construct fused to mCherry-LEXY. LEXY, light-inducible nuclear export system; fusion polypeptide sequence is SEQ ID NO: 114 (encoded by SEQ ID NO: 74). (B) Fluorescence images of HEK 293T cells transfected with the construct in A. mCherry images were taken prior to induction (Preinduction), after 15 min of irradiation with blue light (Post Activation) and after an additional 20 min recovery phase in the absence of blue light (Post Recovery). (C) Line profile of the indicated cell in B, (D) Bar plot showing control of dCas9-VP64-mediated luciferase reporter activation by NLS-AcrIIA4-mCherry-LEXY. […]
To test whether sequestering AcrIIA4 away from the nucleus could be a possible mode for allosteric Acr control we employed a light-inducible nuclear export system (LEXY) previously reported (Niopek et al., 2016), which mediates the nuclear export of proteins fused to the LEXY domain (an AsLOV2-Nuclear Export Signal-Hybrid) in response to blue light. […] The nuclear mChcrry fluorescence fully recovered within 20 min when blue-light irradiation was stopped, showing that AcrIIA4 nuclear export was reversible (FIGS. 5B and Q.

SpyCas9 = target: T2, SpyCas9 (Streptococcus pyogenes serotype M1, UniProt Q99ZW2); assay: Cas9 luciferase reporter cleavage assay (dual luciferase); format: cell-based; details: HEK 293T, 48 h post-transfection; for effect on Cas9-caused firefly luciferase knockdown (Cas9 inhibition): with or without N-terminal SV40 NLS
T2 construct: 2A-GFP (C); host or cells: HEK 293T
Method: HEK 293T cells were seeded into black, clear-bottom 96-well plates (Corning) at a density of ˜12.500 cells per well Twenty-four hours after seeding, cells were transfected according to the manufacturer's instructions using Lipofectamine® 2000 and Opti-MEM® reduced serum medium (Thermo Fisher).
For the dCas9-VP64 trans-activation assays, 50 ng/well of each, a plasmid encoding dCas9-VP64_GFP (Addgene plasmid #61422, kind gift from Feng Zhang), a tet-inducible firefly luciferase reporter (Addgene plasmid #64127, kind gift from Moritoshi Sato) and a TetO-targeting guide RNA vector (Addgene plasmid #64161, kind gift from Moritoshi Sato) were co-transfected alongside 1 ng/well pRL-TK (TK-driven Renilla expression vector for normalization; Promega) as well as 1-50 ng/well of the AcrIIA4 constructs and, optionally, stuffer DMA (pcDNA3.1(−) (Invitrogen)). For the reporter cleavage assay, a plasmid encoding an H1 promoter-driven guideRNA as well as firefly luciferase and Renilla luciferase was co-transfected alongside Cas9 expression vector pSpCas9(BB)-2A-GFP (PX453; Addgene plasmid #48138, kind gift from Feng Zhang) as weft as the corresponding AcrIIA4 variant (50 ng/well each). […]
as §1

Cas9 = target: T3, Cas9 (Streptococcus pyogenes serotype M1, UniProt Q99ZW2); assay: T7 endonuclease assay, CFTR locus editing; format: cell-based; details: HEK 293T
T3 construct: expressed in transfected cells; host or cells: HEK 293T
Method: HEK 293T cells were seeded into transparent 96-well plates (Coming). […] Sixteen It post-transfection, cells were irradiated with blue light (7 s ON, 7 s OFF, 3 W/m^2) for 32 h or kept in the dark as control. Subsequently, cells were washed with PBS and lysed using the DirectPCR lysis reagent (PcqLab). A fragment spanning the edited part of the CFTR locus was PCR-amplified using Q5 polymerase and the following primers: CFTR_fw: 5′-[…]-3′, SEQ ID NO: 30; CFTR_re: 5′-[…]-3′, SEQ ID NO: 31). The PCR reaction was run on an agarose gel and the amplicon was purified using a QIAGEN Gel Extraction Kit. Two hundred ng of PCR diluted in 19.5 μl 1× NEB Buffer 2 were then healed up to 95° C. followed by re-annealing in a thermocycler. Next, 0.5 μl of T7 Endonuclease (NEB) were added, and the reaction was incubated at 37° C. for 15 min and then stopped by adding EDTA-containing gel loading dye. Lastly, T7 reactions were analyzed on a 2% agarose gel stained with GelRed (Biotium, Inc.).

## NLS-AcrIIA4-mCherry-LEXY: NLS-tagged AcrIIA4 fused to mCherry and light-inducible nuclear export system LEXY; SEQ ID NO: 114
dCas9-VP64; blue light vs dark, dose-dependent
  dCas9-VP64-mediated luciferase reporter induction upon light-induced nuclear export: noticeable increase
HEK 293T cells
  time to full recovery of nuclear mCherry fluorescence after blue-light irradiation was stopped: ≤ 20 min
HEK 293T cells; 15 min blue light
  nuclear mCherry fluorescence upon blue-light irradiation: fast and strong decrease

## AcrIIA4: anti-CRISPR polypeptide of a Listeria monocytogenes prophage, SEQ ID NO: 1 [reference compound]
SpyCas9
  effect on Cas9-caused firefly luciferase knockdown (Cas9 inhibition): strongly reduced

## construct 1: LOV2 inserted between AcrIIA4 residues E66/Y67, no linkers; SEQ ID NO: 88
SpyCas9; LOV2 insertion screen at 41 positions
  Cas9 inhibition in the absence of blue light: highest
Cas9; Cas9:AcrIIA4 construct 1:1, dark
  Cas9 inhibition in the dark (CFTR locus editing): no significant
Cas9; Cas9:AcrIIA4 construct 1:4, blue light 32 h or dark
  light-dependent Cas9 inhibition (CFTR locus editing light vs dark): inhibited Cas9 in a light-dependent manner
Cas9; Cas9:AcrIIA4 construct 1:4, dark
  Cas9 block in the dark (CFTR editing in dark sample): did not fully block Cas9

## SV40 NLS-AcrIIA4: N-terminal SV40 NLS fusion to AcrIIA4; SEQ ID NO: 115
SpyCas9
  effect on Cas9-caused firefly luciferase knockdown (Cas9 inhibition): full recovery of the luciferase reporter signal

## cMyc^PIA NLS-mCherry-AcrIIA4
dCas9-VP64; 48 h post-transfection
  AcrIIA4 activity due to nuclear targeting (dCas9-VP64 inhibition): boost in AcrIIA4 activity
